{"source": "the supplement of paper PMC9112550", "about": "“Optimization of the antimicrobial peptide Bac7 by deep mutational scanning” (BMC Biology, 2022);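 note: peptides expressed intracellularly from a pBAD plasmid library in pooled LB shake-flask culture, induced with 0.3% L-arabinose, DNA abundance read by NGS, three biological replicates, DESeq2 with apeglm shrinkage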", "data": [{"tested_on": "Escherichia coli TOP10", "assay": "shrunken log2 fold change of peptide-encoding DNA abundance (4.5 h post-induction vs induction); higher = less antimicrobial activity (less host growth inhibition)", "details": "time post-induction: 4.5 h; library: site-saturation at positions 5, 18, 19, 20", "values": [{"sequence": "RRIRMRPPRLPRPRPRPTQSPRP", "shrunken log2 fold change": 1.03}, {"sequence": "RRIRFRPPRLPRPRPRPCSKPRP", "shrunken log2 fold change": -0.152}, {"sequence": "RRIRSRPPRLPRPRPRPVVKPRP", "shrunken log2 fold change": -0.14}, {"sequence": "RRIRDRPPRLPRPRPRPCNSPRP", "shrunken log2 fold change": -0.0276}, {"sequence": "RRIRYRPPRLPRPRPRPYHFPRP", "shrunken log2 fold change": -0.535}, {"sequence": "RRIRFRPPRLPRPRPRPCTIPRP", "shrunken log2 fold change": -0.15}, {"sequence": "RRIRSRPPRLPRPRPRPFYMPRP", "shrunken log2 fold change": -0.561}, {"sequence": "RRIRGRPPRLPRPRPRPWGMPRP", "shrunken log2 fold change": 0.0572}, {"sequence": "RRIRNRPPRLPRPRPRPNAMPRP", "shrunken log2 fold change": 0.0458}, {"sequence": "RRIRSRPPRLPRPRPRPRENPRP", "shrunken log2 fold change": 0.468}, {"sequence": "RRIRDRPPRLPRPRPRPYGQPRP", "shrunken log2 fold change": -0.0816}, {"sequence": "RRIRLRPPRLPRPRPRPCKIPRP", "shrunken log2 fold change": -0.357}, {"sequence": "RRIRIRPPRLPRPRPRPEHTPRP", "shrunken log2 fold change": -0.464}, {"sequence": "RRIRIRPPRLPRPRPRPPKGPRP", "shrunken log2 fold change": 0.0681}, {"sequence": "RRIRYRPPRLPRPRPRPCTKPRP", "shrunken log2 fold change": -1.15}, {"sequence": "RRIRRRPPRLPRPRPRPLTRPRP", "shrunken log2 fold change": 0.234}, {"sequence": "RRIRRRPPRLPRPRPRPLLRPRP", "shrunken log2 fold change": 0.44}, {"sequence": "RRIRMRPPRLPRPRPRPTWDPRP", "shrunken log2 fold change": 0.762}, {"sequence": "RRIRFRPPRLPRPRPRPIPHPRP", "shrunken log2 fold change": -0.31}, {"sequence": "RRIRKRPPRLPRPRPRPSFRPRP", "shrunken log2 fold change": -0.294}, {"sequence": "RRIRMRPPRLPRPRPRPCMMPRP", "shrunken log2 fold change": -0.124}, {"sequence": "RRIRFRPPRLPRPRPRPLAIPRP", "shrunken log2 fold change": -0.0726}, {"sequence": "RRIRDRPPRLPRPRPRPMSYPRP", "shrunken log2 fold change": -0.0376}, {"sequence": "RRIRTRPPRLPRPRPRPDDVPRP", "shrunken log2 fold change": -0.102}, {"sequence": "RRIRRRPPRLPRPRPRPCLYPRP", "shrunken log2 fold change": -0.117}, {"sequence": "RRIRYRPPRLPRPRPRPLLMPRP", "shrunken log2 fold change": -0.547}, {"sequence": "RRIRLRPPRLPRPRPRPLTPPRP", "shrunken log2 fold change": 0.62}, {"sequence": "RRIRKRPPRLPRPRPRPDFEPRP", "shrunken log2 fold change": 0.0238}, {"sequence": "RRIRHRPPRLPRPRPRPPLFPRP", "shrunken log2 fold change": 0.169}, {"sequence": "RRIRERPPRLPRPRPRPKRGPRP", "shrunken log2 fold change": 0.385}, {"sequence": "RRIRERPPRLPRPRPRPIEGPRP", "shrunken log2 fold change": 0.0039}, {"sequence": "RRIRHRPPRLPRPRPRPYMIPRP", "shrunken log2 fold change": -0.025}, {"sequence": "RRIRVRPPRLPRPRPRPPTQPRP", "shrunken log2 fold change": 0.273}, {"sequence": "RRIRKRPPRLPRPRPRPHHHPRP", "shrunken log2 fold change": -0.208}, {"sequence": "RRIRCRPPRLPRPRPRPDFYPRP", "shrunken log2 fold change": -0.629}, {"sequence": "RRIRSRPPRLPRPRPRPRMEPRP", "shrunken log2 fold change": 0.0338}, {"sequence": "RRIRQRPPRLPRPRPRPDTHPRP", "shrunken log2 fold change": -0.347}, {"sequence": "RRIRCRPPRLPRPRPRPRRIPRP", "shrunken log2 fold change": -0.246}, {"sequence": "RRIRRRPPRLPRPRPRPDMCPRP", "shrunken log2 fold change": 0.019}, {"sequence": "RRIRRRPPRLPRPRPRPLHWPRP", "shrunken log2 fold change": 0.235}, {"sequence": "RRIRMRPPRLPRPRPRPIAGPRP", "shrunken log2 fold change": -0.0293}, {"sequence": "RRIRIRPPRLPRPRPRPYCLPRP", "shrunken log2 fold change": -0.259}, {"sequence": "RRIRKRPPRLPRPRPRPMNPPRP", "shrunken log2 fold change": 0.0725}, {"sequence": "RRIRGRPPRLPRPRPRPDMMPRP", "shrunken log2 fold change": 0.023}, {"sequence": "RRIRPRPPRLPRPRPRPTYHPRP", "shrunken log2 fold change": -0.274}, {"sequence": "RRIRKRPPRLPRPRPRPTMGPRP", "shrunken log2 fold change": -0.0139}, {"sequence": "RRIRARPPRLPRPRPRPEPYPRP", "shrunken log2 fold change": 0.34}, {"sequence": "RRIRLRPPRLPRPRPRPKYEPRP", "shrunken log2 fold change": -0.0397}, {"sequence": "RRIRYRPPRLPRPRPRPQYFPRP", "shrunken log2 fold change": -1.64}, {"sequence": "RRIRQRPPRLPRPRPRPSNEPRP", "shrunken log2 fold change": -0.5}, {"sequence": "RRIRFRPPRLPRPRPRPVAAPRP", "shrunken log2 fold change": 1.41}, {"sequence": "RRIRYRPPRLPRPRPRPQAPPRP", "shrunken log2 fold change": -0.0309}, {"sequence": "RRIRDRPPRLPRPRPRPISGPRP", "shrunken log2 fold change": 0.0039}, {"sequence": "RRIRCRPPRLPRPRPRPPDMPRP", "shrunken log2 fold change": -0.000808}, {"sequence": "RRIRYRPPRLPRPRPRPVPVPRP", "shrunken log2 fold change": -0.24}, {"sequence": "RRIRYRPPRLPRPRPRPDWSPRP", "shrunken log2 fold change": -0.522}, {"sequence": "RRIRNRPPRLPRPRPRPEQHPRP", "shrunken log2 fold change": 0.0592}, {"sequence": "RRIRCRPPRLPRPRPRPFTRPRP", "shrunken log2 fold change": -0.291}, {"sequence": "RRIRRRPPRLPRPRPRPMQLPRP", "shrunken log2 fold change": 0.596}, {"sequence": "RRIRCRPPRLPRPRPRPFLQPRP", "shrunken log2 fold change": 1.41}, {"sequence": "RRIRPRPPRLPRPRPRPWSHPRP", "shrunken log2 fold change": -0.157}, {"sequence": "RRIRGRPPRLPRPRPRPERLPRP", "shrunken log2 fold change": 0.586}, {"sequence": "RRIRSRPPRLPRPRPRPSPIPRP", "shrunken log2 fold change": -0.467}, {"sequence": "RRIRARPPRLPRPRPRPQGKPRP", "shrunken log2 fold change": 0.128}, {"sequence": "RRIRWRPPRLPRPRPRPKLFPRP", "shrunken log2 fold change": 0.589}, {"sequence": "RRIRARPPRLPRPRPRPEHFPRP", "shrunken log2 fold change": 0.126}, {"sequence": "RRIRHRPPRLPRPRPRPNQAPRP", "shrunken log2 fold change": 0.033}, {"sequence": "RRIRDRPPRLPRPRPRPNPPPRP", "shrunken log2 fold change": 0.2}, {"sequence": "RRIRCRPPRLPRPRPRPNLQPRP", "shrunken log2 fold change": -0.506}, {"sequence": "RRIRYRPPRLPRPRPRPYNPPRP", "shrunken log2 fold change": -0.256}, {"sequence": "RRIRRRPPRLPRPRPRPPFEPRP", "shrunken log2 fold change": 0.61}, {"sequence": "RRIRMRPPRLPRPRPRPIQLPRP", "shrunken log2 fold change": -0.0799}, {"sequence": "RRIRKRPPRLPRPRPRPNCAPRP", "shrunken log2 fold change": 0.873}, {"sequence": "RRIRVRPPRLPRPRPRPHCSPRP", "shrunken log2 fold change": -0.0738}, {"sequence": "RRIRTRPPRLPRPRPRPDARPRP", "shrunken log2 fold change": 0.0965}]}]}
